Experimental data as given in patent US20240390468A1, “SURVIVIN AND MAGE-A9 DUAL-TARGETED IMMUNOTHERAPY” (IMMUNOVACCINE TECHNOLOGIES INC., priority 2022, published 2024).

How the values were obtained:
Details in all cases: remark: other sources report otherwise
[1] = molecular target: MHC class 1 allele A*02:01; assay: REVEAL R-score, HLA-A*02:01
[2] = molecular target: MHC class 1 allele A*02:01; assay: REVEAL kinetic score, HLA-A*02:01
[3] = molecular target: MHC class 1 allele A*02:01; assay: REVEAL on-rate assay, HLA-A*02:01
[4] = molecular target: MHC class 1 allele A*02:01; assay: REVEAL off-rate assay, HLA-A*02:01
[5] = molecular target: MHC class 1 allele A*02:01; assay: REVEAL peptide-MHC binding assay, HLA-A*02:01

B1: SurA24 (survivin peptide antigen HLA-A24, …) (peptide)
peptide: STFKNWPFL
Binder B1 has a R-score [1] of 0, a Kinetic score [2] of 0 and an On-rate T1/2 [3] of 31.5 h. For the same binder, the Off-rate T1/2 [4] was 7.2 min and the REVEAL score [5] was 61.9.
